Laboratory results as given in paper PMC7750480, “A hybrid approach reveals the allosteric regulation of GTP cyclohydrolase I” (Proceedings of the National Academy of Sciences of the …, 2020).

Assays:
Type in all cases: biochemical, human
Conditions in all cases: other: substrate GTP 1-2000 µM, without GFRP, not stimulated/inhibited; pH 7.5; 37.0 °C
[1] = substrate: Nc1nc2c(ncn2[C@@H]2O[C@H](COP(=O)(O)OP(=O)(O)OP(=O)(O)O)[C@@H](O)[C@H]2O)c(=O)[nH]1; test: enzyme kinetics, H2NTP formation at 330 nm, F122A GCH1
Description: (§1) In order to test the role of the key residues H126, D127, E128, R235, and R241 involved in allosteric inhibitor binding and conformational change, various point mutants were prepared and tested for their ability to be stimulated and inhibited by effector molecules in the presence or absence of GFRP. […] Enzyme activity was evaluated using an activity assay measuring the formation of the product H2NTP at 330 nm with increasing GTP concentrations.
(§2) GTPCH-I specific enzyme activity was determined by spectrometric measuring of the concentration of its direct product H2NTP. Synergy H1 (BioTek Instruments) and Gen5 2.01 software were used to evaluate H2NTP concentration and the maximal turnover rate (Vmax) within each measuring interval. H2NTP concentration was measured at 330 nm over a measuring period of 2 h using a measuring interval of 2 min to 4 min at 37 °C. Samples were prepared using 2 μM GTPCH-I, varying concentrations of GTP (1 μM to 2,000 µM) and in the absence or presence of 15 mM phenylalanine, 0.1 mM BH4, or 3 μM GFRP. The assay buffer used was 50 mM Tris/HCl, pH 7.5, 100 mM KCl. The specific enzyme activity (A) was calculated using the path length of 0.15 cm and the extinction coefficient […] = 6,300 M^−1⋅cm^−1 H2NTP. […] All enzymatic data were, at least, measured in triplicate (n = 3).

[2] = substrate: Nc1nc2c(ncn2[C@@H]2O[C@H](COP(=O)(O)OP(=O)(O)OP(=O)(O)O)[C@@H](O)[C@H]2O)c(=O)[nH]1; test: enzyme kinetics, H2NTP formation at 330 nm, R235A-GCH1
Description: as §1, §2

[3] = substrate: Nc1nc2c(ncn2[C@@H]2O[C@H](COP(=O)(O)OP(=O)(O)OP(=O)(O)O)[C@@H](O)[C@H]2O)c(=O)[nH]1; test: enzyme kinetics, H2NTP formation at 330 nm, D127A GCH1
Description: as §1, §2

[4] = substrate: Nc1nc2c(ncn2[C@@H]2O[C@H](COP(=O)(O)OP(=O)(O)OP(=O)(O)O)[C@@H](O)[C@H]2O)c(=O)[nH]1; test: enzyme kinetics, H2NTP formation at 330 nm, R241A-GCH1
Description: as §1, §2

B1: F122A GCH1 (Homo sapiens; F122A) (protein)
chain: PEAKSAQPADGWKGERPRSEEDNELNLPNLAAAYSSILSSLGENPQRQGLLKTPWRAASAMQFFTKGYQETISDVLNDAIADEDHDEMVIVKDIDMFSMCEHHLVPFVGKVHIGYLPNKQVLGLSKLARIVEIYSRRLQVQERLTKQIAVAITEALRPAGVGVVVEATHMCMVMRGVQKMNSKTVTSTMLGVFREDPKTREEFLTLIRS
notes: The hGCH1 (42-250, N-terminal 6xHis Tag and TEV cleavage site); 6xHis (N); TEV cleavage site (N); made in house; host or cells: E. coli BL21(DE3)
Km [1]: 434 µM

B2: R235A-GCH1 (Homo sapiens; R235A) (protein)
chain: PEAKSAQPADGWKGERPRSEEDNELNLPNLAAAYSSILSSLGENPQRQGLLKTPWRAASAMQFFTKGYQETISDVLNDAIFDEDHDEMVIVKDIDMFSMCEHHLVPFVGKVHIGYLPNKQVLGLSKLARIVEIYSRRLQVQERLTKQIAVAITEALRPAGVGVVVEATHMCMVMRGVQKMNSKTVTSTMLGVFAEDPKTREEFLTLIRS
notes: as for B1
Km [2]: 328 µM

B3: D127A GCH1 (Homo sapiens; D127A) (protein)
chain: PEAKSAQPADGWKGERPRSEEDNELNLPNLAAAYSSILSSLGENPQRQGLLKTPWRAASAMQFFTKGYQETISDVLNDAIFDEDHAEMVIVKDIDMFSMCEHHLVPFVGKVHIGYLPNKQVLGLSKLARIVEIYSRRLQVQERLTKQIAVAITEALRPAGVGVVVEATHMCMVMRGVQKMNSKTVTSTMLGVFREDPKTREEFLTLIRS
notes: as for B1
Km [3]: 483 µM

B4: R241A-GCH1 (Homo sapiens; R241A) (protein)
chain: PEAKSAQPADGWKGERPRSEEDNELNLPNLAAAYSSILSSLGENPQRQGLLKTPWRAASAMQFFTKGYQETISDVLNDAIFDEDHDEMVIVKDIDMFSMCEHHLVPFVGKVHIGYLPNKQVLGLSKLARIVEIYSRRLQVQERLTKQIAVAITEALRPAGVGVVVEATHMCMVMRGVQKMNSKTVTSTMLGVFREDPKTAEEFLTLIRS
notes: as for B1
Km [4]: 306 µM
